According to patent US7301014B2, “Nucleic acid molecule encoding a novel estrogen receptor beta variant” (Wyeth, priority 2002, dated 2007):
“Also recorded” adds a separate entry of the source.

B1: ERβcx2: novel human estrogen receptor beta variant; C-terminal 61 amino acids of wild-type ERβ replaced by unique 7 amino acids; tested as expression plasmid (protein)
chain: KVFSQLLSQDMNIKNSPSSLNSPSSYNCSQSILPLEHGSIYIPSSYVDSHHEYPAMTFYSPAVMNYSIPSNVTNLEGGPGRQTTSPNVLWPTPGHLSPLVVHRQLSHLYAEPQKSPWCEARSLEHTLPVNRETLKRKVSGNRCASPVTGPGSKRDAHFCAVCSDYASGYHYGVWSCEGCKAFFKRSIQGHNDYICPATNQCTIDKNRRKSCQACRLRKCYEVGMVKCGSRRERCGYRLVRRQRSADEQLHCAGKAKRSGGHAPRVRELLLDALSPEQLVLTLLEAEPPHVLISRPSAPFTEASMMMSLTKLADKELVHMISWAKKIPGFVELSLFDQVRLLESCWMEVLMMGLMWRSIDHPGKLIFAPDLVLDRDEGKCVEGILEIFDMLLATTSRFRELKLQHKEYLCVKAMILLNSSMYPLVTATQDADSSRKLAHLLNAVTDALVWVIAKSGISSQQQSMRLANLLMLLSHVRHARLYIWALKMFAALKQILRPAFPSSRECFPYCVPLMSMALSQRVHDINKVFHYFGFXKKKKKKKXXXXKKGRPLRIPR
modifications: not fully specified; X: residue not identified in the source
notes: novel human estrogen receptor beta variant; C-terminal 61 amino acids of wild-type ERβ replaced by unique 7 amino acids; tested as expression plasmid
B2: ERβ: wild-type estrogen receptor beta, expressed from expression plasmid (protein, UniProt Q92731 1-530, looked up)
Estrogen receptor beta: MDIKNSPSSLNSPSSYNCSQSILPLEHGSIYIPSSYVDSHHEYPAMTFYSPAVMNYSIPSNVTNLEGGPGRQTTSPNVLWPTPGHLSPLVVHRQLSHLYAEPQKSPWCEARSLEHTLPVNRETLKRKVSGNRCASPVTGPGSKRDAHFCAVCSDYASGYHYGVWSCEGCKAFFKRSIQGHNDYICPATNQCTIDKNRRKSCQACRLRKCYEVGMVKCGSRRERCGYRLVRRQRSADEQLHCAGKAKRSGGHAPRVRELLLDALSPEQLVLTLLEAEPPHVLISRPSAPFTEASMMMSLTKLADKELVHMISWAKKIPGFVELSLFDQVRLLESCWMEVLMMGLMWRSIDHPGKLIFAPDLVLDRDEGKCVEGILEIFDMLLATTSRFRELKLQHKEYLCVKAMILLNSSMYPLVTATQDADSSRKLAHLLNAVTDALVWVIAKSGISSQQQSMRLANLLMLLSHVRHASNKGMEHLLNMKCKNVVPVYDLLLEMLNAHVLRGCKSSITGSECSPAEDSKSKEGSQNPQSQ

Experiments:
Format in all cases: cell-based, human
[1] = test system: ERα signaling pathway; assay: Cotransfection of ERE-tk reporter with ERα and increasing amounts of ERβcx2 expression plasmid (dominant negative activity); settings: ERE-tk reporter cotransfected with ERα; E2 ligand activation; luciferase measured in 48 hrs; FIG. 9
Source text: (§1) The estrogen response element (ERE) containing reporter, ERα, and ERβ expression plasmids have been described previously (Bodine, et al J Cell Biochem 1997; 65: 368-387 and Bhat et al. J Steroid Biochem Mol Biol 1998; 67(3):233-40). The ERβcx2 expression plasmid was constructed by cloning a BstXI/Xbal fragment of the original ERβcx2 clone (ef1-3/pCR 2.1) into the ERβ expression plasmid digested with the same restriction enzymes. The sequence of the clone was confirmed by sequence analysis. An SV40-β gal plasmid (Promega, Madison, Wis.) was used to normalize transfections.
(§2) Cells were transfected with lipofectamine 2000 and incubated in the presence or absence of estrogen for 24 hrs. Luciferase expression was monitored in the cell lysates. Transient transfections were performed in HepG2 cells maintained in DMEM supplemented with 10% fetal bovine serum. […] 24 hrs later, cells were and luciferase activity was quantitated in an automated ML 1000 Luminometer (Dynex Technologies, Chantilly, Va.,). β-galactosidase activity was measured in cell lysates to normalize for differences in transfection efficiency. […]
(§3) In these experiments, the ERE-tk reporter was cotransfected with either ERα or ERβ and increasing amounts of the ERβcx2 expression plasmid. Luciferase acitivity was measured in 48 hrs. […]

[2] = test system: ERβ signaling pathway; assay: Cotransfection of ERE-tk reporter with ERβ and increasing amounts of ERβcx2 expression plasmid (dominant negative activity); settings: ERE-tk reporter cotransfected with ERβ; E2 ligand activation; luciferase measured in 48 hrs; FIG. 10
Source text: as §1, §2, §3

[3] = test system: ERE-tk-Luciferase reporter in HepG2 cells; assay: Transactivation of ERE-tk-Luciferase reporter by estrogen receptor variants, transient transfection; parameters: dose or concentration left out as unconfirmed; settings: HepG2 cells transfected with receptor expression plasmid; stimulation with E2 (17b-estradiol) vs ethanol vehicle, 24 hrs; normalized to β-galactosidase
Source text: as §1
as §2, with “serum. Twenty-four hours prior to transfection, cells are seeded in phenol red-free (PRF) DMEM containing 10% charcoal-stripped serum (csFBS), into collagen-coated 6 well plates (Biocoat, Becton Dickenson).” for “serum.”

Molecule	luciferase activity of E2-activated ERα with increasing amounts of the ERβcx2 expression construct [1]	signaling through E2-activated ERβ (luciferase) with increasing amounts of the ERβcx2 expression construct [2]	ligand-activated transcription of the ERE-reporter (luciferase activity), induction [3]
B1	diminished	reduced	unable to induce transcription; also recorded: unchanged
B2			8.0 fold
